Experimental data taken from publication PMC7076015, “An epilepsy-associated mutation in the nuclear import receptor KPNA7 reduces nuclear localization signal binding” (Scientific Reports, 2020).

Assays:
Settings in all cases: both partners purified
MBP-KPNA7(P339A) = target: T1, MBP-KPNA7(P339A) (human, UniProt A9QM74 1-516, P339A); assay: pull-down; MBP fusion proteins on amylose resin (1 μg/μl), GST-GFP-NLS constructs in solution (250 nM or indicated concentrations) with Imp-β (250 nM); 2 hrs at 4 °C, 20 mM Tris pH 8, 200 mM NaCl, 1 mM EDTA, 1 mM DTT, 0.05% Triton X-100; western blot
T1 construct: Substitution found in epilepsy patients (occurs in nature); also called KPNA7 mutant P339A; P339A KPNA7; source: E. coli BL21, purified (amylose resin, eluted with maltose, dialyzed)

MBP-KPNA7(E344Q) [1] = target: T2, MBP-KPNA7(E344Q) (human, UniProt A9QM74 1-516, E344Q); assay: as above
T2 construct: Substitution found in epilepsy patients (occurs in nature); also called KPNA7 mutant E344Q; E344Q KPNA7; source: E. coli BL21, purified (amylose resin, eluted with maltose, dialyzed)

MBP-KPNA7 (wild type) = target: T3, MBP-KPNA7 (wild type) (human, UniProt A9QM74 1-516); assay: pull-down; bead binding assay with a range of GST-GFP-hnRNP R-bNLS concentrations (10 nM to 2.7 μM) on KPNA7 proteins; binding curve, apparent KD
T3 construct: also called WT KPNA7; MBP-KPNA7 WT; source: E. coli BL21, purified (amylose resin, eluted with maltose, dialyzed)

MBP-KPNA7(E344Q) [2] = target: T2, MBP-KPNA7(E344Q); assay: as above

T2 sequence (A9QM74 whole entry E344Q): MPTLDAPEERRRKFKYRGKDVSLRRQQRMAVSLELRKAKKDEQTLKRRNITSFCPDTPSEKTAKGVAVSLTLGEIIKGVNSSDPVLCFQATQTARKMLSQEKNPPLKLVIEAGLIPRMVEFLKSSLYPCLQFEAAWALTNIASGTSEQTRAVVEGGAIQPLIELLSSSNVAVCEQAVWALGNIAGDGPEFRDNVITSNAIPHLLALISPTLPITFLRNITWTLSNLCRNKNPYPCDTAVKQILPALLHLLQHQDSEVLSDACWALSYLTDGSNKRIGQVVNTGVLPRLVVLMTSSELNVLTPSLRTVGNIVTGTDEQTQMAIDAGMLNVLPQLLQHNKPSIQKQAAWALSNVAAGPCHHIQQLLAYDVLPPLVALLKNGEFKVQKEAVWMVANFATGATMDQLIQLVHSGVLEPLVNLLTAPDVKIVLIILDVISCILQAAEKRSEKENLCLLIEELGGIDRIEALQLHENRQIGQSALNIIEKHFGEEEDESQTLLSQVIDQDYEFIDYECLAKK
T1 sequence (A9QM74 whole entry P339A, the tested form may be a part): as the sequence (A9QM74 whole entry E344Q) above, with P339A, Q344E counted along it
T3 sequence (A9QM74 whole entry): as the sequence (A9QM74 whole entry E344Q) above, with Q344E counted along it

B1: GST-GFP-hnRNP R bipartite NLS (domain or fragment, UniProt O43390 565-589, looked up)
chain: RGGNVGGKRKADGYNQPDSKRRQTN
notes: hnRNP R, bipartite NLS (bNLS, a.a. 565-589), cloned into pGEX-4T1-GFP; The limits are those that the text gives for the NLS; also called hnRNP R bNLS; hnRNP R-bNLS; source: E. coli BL21, purified (glutathione resin)
In the case of B1, the binding result (MBP-KPNA7(P339A)) is reported as “binds”, the “fold less binding than WT KPNA7” value (MBP-KPNA7(E344Q) [1]) is reported as roughly 10 fold and the Kd (MBP-KPNA7 (wild type)) is reported as roughly 123 nM. The Kd (MBP-KPNA7(E344Q) [2]) was roughly 223 nM.
